Substrate: Cc1cccc(Cn2nc(C(=O)N3CCC(Cc4ccccc4)CC3)cc2-c2ccc(O)cc2)c1
Conditions: Homo sapiens
Description: Competitive inhibition of recombinant human MAGL assessed as substrate Km using 4-NPA as substrate after 30 mins by Michaelis-Menten plot analysis

B1: Monoglyceride lipase (Homo sapiens), Q99685 (protein)
chain: MPEESSPRRTPQSIPYQDLPHLVNADGQYLFCRYWKPTGTPKALIFVSHGAGEHSGRYEELARMLMGLDLLVFAHDHVGHGQSEGERMVVSDFHVFVRDVLQHVDSMQKDYPGLPVFLLGHSMGGAIAILTAAERPGHFAGMVLISPLVLANPESATTFKVLAAKVLNLVLPNLSLGPIDSSVLSRNKTEVDIYNSDPLICRAGLKVCFGIQLLNAVSRVERALPKLTVPFLLLQGSADRLCDSKGAYLLMELAKSQDKTLKIYEGAYHVLHKELPEVTNSVFHEINMWVSQRTATAGTASPP
Work on B1 yielded a Km of 210 µM.
